Among the data in article PMC4136698 are percent of kinase retained by the immobilized SH3 domain ligand and percent of total kinase retained on beads values, retold here.

For this experiment, the target named is SNAP tag–polyproline peptide fusion (…). Nature of the experiment: pull-down.

In turn, “Src^Y527F (from UniProt P00523 84-533) (enzyme)” returned a percent of kinase retained by the immobilized SH3 domain ligand of 74% and a percent of total kinase retained on beads of 11%.
